1 substance from patent US20100292309A1 can be followed below.

The experiment deals with H-2Kb-restricted ova peptide SIINFEKL presented on H-2Kb (chicken). In words: cell-based or functional assay.

transgenic OT-I T-cell receptor (TCR) registered an IFN-gamma ELISPOT, spots per well (spots per well) above 1000.
